The target of one assay is T1, wt-CFTR channel (Homo sapiens, UniProt P13569).
T1 construct: made in house; host or cells: 293-EBNA HEK cells (Invitrogen), transient transfection with pCEP4(wt); microsomal membrane vesicles
The assay can be described thus: Single channel recording of wt-CFTR reconstituted in planar lipid bilayer. Format: biochemical. On the procedure:
(§1) To test whether the NEG2 region is responsible for both stimulatory and inhibitory interactions between the R domain and other domains, synthetic NEG2, a 22 amino acid peptide, was added to the cis-intracellular side of single CFTR channels captured in the planar lipid bilayer (FIG. 3). […] After peptide addition, there are periods of intense stimulation that last 4 to 8 minutes. These stimulatory periods are followed by either a return to the basal level of activity before peptide addition, or by an almost complete inhibition of the channel, where only a flickery 3 pS conductance is observed.
In order to understand the mechanism responsible for the increase in open probability, the gating kinetics of wt-CFTR without peptide and during stimulation by synthetic NEG2 were analyzed. […] Thus, the increase in the open probability is not due to a change in the closing rate of the channel. However, the closed time distribution for the stimulated channel is clearly shifted to the left compared to the control channel (FIG. 4B). There are three components to the closed state, a fast (τc1), an intermediate (τc2) and a long (τc3) closed component. The fast closed component is probably due to closings within a burst (Carson et al., 1995). Therefore, to identify better the closed times between bursts, a delimiter of τc=40 ms was set at the nadir between the fast and intermediate closed times (illustrated by the arrow in FIG. 4B) to generate the closed-burst duration histograms. […] Thus, the interaction of NEG2 with CFTR increased the intermediate-opening rate of the channel. This increase in opening rate is similar to that observed when the phosphorylated R domain protein (amino acids 645-834) was added to CFTR-ΔR/S660A in excised, inside-out patches (Winter and Welsh, 1997). Additionally, modification of C832, which resides within NEG2, by N-ethylrnaleimide (NEM) results in irreversible stimulation of PKA-phosphorylated CFTR chloride channel activity (Cotten and Welsh, 1997), further emphasizing the importance of NEG2 in CFTR regulation.
A human embryonic kidney cell line (293-EBNA HEK; Invitrogen) was used for transfection and expression of the CFTR proteins (Ma et al., 1997, Ma et al., 1996, Xie et al., 1995). The HEK-293 cell line contains a pCMV-EBNA vector, which constitutively expresses the Epstein-Barr virus nuclear antigen-1 (EBNA-1) gene product and increases the transfection efficiency of Epstein-Barr virus-based vectors. The cells were maintained in Dulbecco's Modified Eagle Medium with 10% FBS and 1% L-glutamine. Geneticin (G418, 250 (g/ml) was added to the cell culture medium to maintain selection of the cells containing the pCMV-EBNA vector. Lipofectamine reagent (Life Technologies, Inc) in Optimem media (serum-free) was used to transfect the HEK-293 cells with pCEP4(wt), pCEP4(ΔNEG1), or pCEP4(ΔNEG2). After 5 hours, serum was added to the media (10% final serum concentration). Twenty-four hours after transfection, the transfection media was replaced with fresh media. The cells were harvested two days after transfection and microsomal membrane vesicles were prepared for single channel measurements in the lipid bilayer reconstitution system.
HEK-293 cells transfected with pCEP4(CFTR) were harvested and homogenized using a combination of hypotonic lysis and Dounce homogenization in the presence of protease inhibitors (Ma et al., 1997, Ma et al., 1996, Xie et al., 1995). Microsomes were collected by centrifugation of postnuclear supernatant (4500×g, 15 min) at 100,000×g for 20 min and resuspended in a buffer containing 250 mM sucrose, 10 mM HEPES, pH 7.2. The membrane vesicles were stored at −75° C. until use.
The 22 amino acid peptide corresponding to NEG2 was custom made by Quality Controlled Biochemicals, Inc. The peptide was resuspended in water to a concentration of 1 mg/ml and pH was adjusted to a physiological range (7.2-7.4) using KOH and HCl. […]

A further assay concerns the target T2, ΔNEG2-CFTR channel (Homo sapiens, UniProt P13569, DEL817-838).
T2 construct: made in house; host or cells: 293-EBNA HEK cells (Invitrogen), transient transfection with pCEP4(ΔNEG2); microsomal membrane vesicles
The assay can be described thus: Single channel recording of ΔNEG2-CFTR reconstituted in planar lipid bilayer. Format: biochemical. Conditions: 0.44 μM NEG2 peptide, −80 mV, 2 mM ATP, no PKA.
Description: Single channel measurements indicate that the ΔNEG1-CFTR channel is similar to wt-CFTR in its PKA dependence. No chloride channels are observed in the absence of PKA (FIG. 2A) and the open probability in the presence of PKA and ATP is similar to wt-CFTR. In contrast, the ΔNEG2-CFTR channel opens without PKA (FIG. 2A). The constitutive activity of the ΔNEG2-CFTR channel is unlikely to be due to the endogenous phosphorylation of the ΔNEG2-CFTR protein, since protein phosphatase 2A, which decreases activity of the wt-CFTR opened by PKA and ATP (Ma et al., 1997), has no effect on the ΔNEG2-CFTR channel (n=4).
as §1, with “observed. […]” for “observed.”

Setting [1] is: peptide-stimulated, 4.4 μM NEG2 peptide, −80 mV.

T1 sequence (P13569 whole entry): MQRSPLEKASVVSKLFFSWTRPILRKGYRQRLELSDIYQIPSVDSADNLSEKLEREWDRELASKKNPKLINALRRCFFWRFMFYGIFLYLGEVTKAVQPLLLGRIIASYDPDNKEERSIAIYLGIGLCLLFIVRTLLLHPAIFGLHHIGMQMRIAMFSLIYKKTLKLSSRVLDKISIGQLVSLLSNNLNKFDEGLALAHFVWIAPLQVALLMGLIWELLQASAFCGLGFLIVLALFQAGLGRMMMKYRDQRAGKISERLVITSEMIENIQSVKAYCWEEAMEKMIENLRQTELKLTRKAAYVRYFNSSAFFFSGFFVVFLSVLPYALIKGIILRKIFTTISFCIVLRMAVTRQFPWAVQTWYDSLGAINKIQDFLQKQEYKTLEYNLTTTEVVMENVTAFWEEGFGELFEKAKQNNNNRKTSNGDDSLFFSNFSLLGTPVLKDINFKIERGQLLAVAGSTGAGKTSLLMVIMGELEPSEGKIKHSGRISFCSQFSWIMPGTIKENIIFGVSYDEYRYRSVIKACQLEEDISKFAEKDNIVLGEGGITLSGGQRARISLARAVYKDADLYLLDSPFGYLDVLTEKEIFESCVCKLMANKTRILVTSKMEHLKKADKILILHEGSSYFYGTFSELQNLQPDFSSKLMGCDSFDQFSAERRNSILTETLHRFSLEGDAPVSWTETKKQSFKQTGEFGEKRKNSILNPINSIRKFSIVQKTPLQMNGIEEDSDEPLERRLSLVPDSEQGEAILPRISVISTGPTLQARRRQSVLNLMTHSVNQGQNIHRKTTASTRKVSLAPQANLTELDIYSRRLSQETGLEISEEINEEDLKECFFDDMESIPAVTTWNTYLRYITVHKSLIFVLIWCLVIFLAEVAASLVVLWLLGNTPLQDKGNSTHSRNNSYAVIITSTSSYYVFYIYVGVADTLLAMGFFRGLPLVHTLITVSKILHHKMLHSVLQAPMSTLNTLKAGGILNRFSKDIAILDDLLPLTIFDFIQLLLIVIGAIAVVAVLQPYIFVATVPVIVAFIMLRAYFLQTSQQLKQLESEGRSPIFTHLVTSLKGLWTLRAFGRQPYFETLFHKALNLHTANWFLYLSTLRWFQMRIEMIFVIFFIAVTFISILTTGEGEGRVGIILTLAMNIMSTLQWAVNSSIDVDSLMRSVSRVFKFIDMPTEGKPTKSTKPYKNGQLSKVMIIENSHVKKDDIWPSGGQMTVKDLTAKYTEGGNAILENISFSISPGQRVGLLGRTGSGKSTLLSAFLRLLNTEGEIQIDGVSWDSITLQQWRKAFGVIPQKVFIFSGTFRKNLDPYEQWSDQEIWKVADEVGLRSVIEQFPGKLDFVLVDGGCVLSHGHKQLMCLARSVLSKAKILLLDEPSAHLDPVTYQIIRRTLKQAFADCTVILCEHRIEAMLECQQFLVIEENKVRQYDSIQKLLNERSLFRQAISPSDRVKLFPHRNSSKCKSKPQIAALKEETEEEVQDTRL
T2 sequence (P13569 with tags, fused parts or gaps DEL817-838): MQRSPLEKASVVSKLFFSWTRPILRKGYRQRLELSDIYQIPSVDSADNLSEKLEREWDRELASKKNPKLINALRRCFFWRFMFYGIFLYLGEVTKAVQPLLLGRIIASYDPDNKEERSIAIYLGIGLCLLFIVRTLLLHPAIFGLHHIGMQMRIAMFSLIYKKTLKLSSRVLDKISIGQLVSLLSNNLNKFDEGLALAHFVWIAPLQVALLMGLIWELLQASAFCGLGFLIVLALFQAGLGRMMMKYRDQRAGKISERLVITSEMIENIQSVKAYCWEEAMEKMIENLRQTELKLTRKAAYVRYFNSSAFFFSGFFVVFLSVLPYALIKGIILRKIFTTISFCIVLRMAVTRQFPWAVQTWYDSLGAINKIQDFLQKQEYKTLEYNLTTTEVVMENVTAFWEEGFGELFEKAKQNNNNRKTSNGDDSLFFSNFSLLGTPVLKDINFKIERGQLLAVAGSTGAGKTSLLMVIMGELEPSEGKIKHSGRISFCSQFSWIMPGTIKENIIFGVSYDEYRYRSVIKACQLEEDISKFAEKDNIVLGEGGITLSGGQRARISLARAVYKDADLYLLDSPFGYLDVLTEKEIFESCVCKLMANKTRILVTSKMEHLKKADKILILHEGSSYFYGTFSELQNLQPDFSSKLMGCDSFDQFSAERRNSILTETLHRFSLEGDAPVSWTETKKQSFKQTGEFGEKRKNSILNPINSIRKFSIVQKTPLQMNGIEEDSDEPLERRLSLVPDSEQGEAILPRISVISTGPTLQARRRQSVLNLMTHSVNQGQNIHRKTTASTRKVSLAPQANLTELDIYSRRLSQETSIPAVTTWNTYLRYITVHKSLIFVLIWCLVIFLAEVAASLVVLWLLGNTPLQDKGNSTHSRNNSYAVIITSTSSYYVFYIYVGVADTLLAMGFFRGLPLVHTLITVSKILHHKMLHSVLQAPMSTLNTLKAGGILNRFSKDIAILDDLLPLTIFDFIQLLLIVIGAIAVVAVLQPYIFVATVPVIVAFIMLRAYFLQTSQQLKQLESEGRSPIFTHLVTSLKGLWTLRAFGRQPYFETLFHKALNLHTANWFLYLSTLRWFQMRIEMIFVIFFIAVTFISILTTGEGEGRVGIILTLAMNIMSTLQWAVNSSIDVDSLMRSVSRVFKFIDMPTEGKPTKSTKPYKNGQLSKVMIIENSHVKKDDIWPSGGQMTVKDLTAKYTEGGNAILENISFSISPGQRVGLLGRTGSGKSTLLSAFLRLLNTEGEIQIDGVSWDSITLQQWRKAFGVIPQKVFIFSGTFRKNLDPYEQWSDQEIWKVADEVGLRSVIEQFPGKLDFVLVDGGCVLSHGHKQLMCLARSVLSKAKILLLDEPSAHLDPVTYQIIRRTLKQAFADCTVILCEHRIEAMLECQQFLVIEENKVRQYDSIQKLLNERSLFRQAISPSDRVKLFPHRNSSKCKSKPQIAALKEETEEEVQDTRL

On to “NEG2 peptide: Synthetic 22 amino acid peptide corresponding to NEG2, amino acids 817-838 of the CFTR R domain (GLEISEEINEEDLKECFFDDME; listed as Homo sapiens)”, for which the “change of open probability during stimulation” value with wt-CFTR channel (peptide added to cis-intracellular side, 2 mM ATP, 50 units PKA/ml) was “more than doubles”. In the assay with wt-CFTR channel (setting [1]), the “P2, probability of the intermediate closed component” value amounted to 0.957 and the “P3, probability of the long closed component” value was found to be 0.043. Also, the “intermediate closed time τc2” value in the assay with wt-CFTR channel (peptide-stimulated, 4.4 μM NEG2 peptide, −80 mV, closed-burst histogram, delimiter 40 ms) is on record as 105 ms. Besides, the “concentration at which stimulatory response was observed” value with wt-CFTR channel (stimulation in 6 of 7 experiments, cis-intracellular addition) was at least 0.44 µM. Also, the “concentration at which profound inhibition was observed” value with wt-CFTR channel (three channels, cis-intracellular addition) is at least 4.4 µM. For the same substance, the “effect on ΔNEG2-CFTR channel activity” value with ΔNEG2-CFTR channel is “stimulation is observed”.

The values above are taken from patent publication US6770739B1, “Enhancers of CFTR chloride channel function” (Case Western Reserve University, priority 1999, dated 2004).
